The Human Domainome abundance scans (Beltran et al. 2025)
± gives the uncertainty stated by the source.

B1: Homeobox protein cut-like 1, residues 941 to 1008; numbered along this chain, P39880 (parent)
chain: QEVDTIELTRQVKEKLAKNGICQRIFGEKVLGLSQGSVSDMLSRPKPWSKLTQKGREPFIRMQLWLNG

Variants of: B1
Assay: abundance fitness (aPCA) (normalised: wild type 0, dead -1); higher = more abundant; growth selection in yeast, the domain comes from the species named
Conditions: Homo sapiens

| Variant | abundance fitness |
| --- | --- |
| QEVDTIELTRQVKEKLAKNGICQRIFGEKVCGLSQGSVSDMLSRPKPWSKLTQKGREPFIRMQLWLNG | -0.255 ± 0.098 |
| QEVDTIELTRQVKEKLAKNGICQRIFGEKVDGLSQGSVSDMLSRPKPWSKLTQKGREPFIRMQLWLNG | -0.425 ± 0.086 |
| QEVDTIELTRQVKEKLAKNGICQRIFGEKVAGLSQGSVSDMLSRPKPWSKLTQKGREPFIRMQLWLNG | -0.273 ± 0.051 |
| QEVDTIELTRQVKEKLAKNGICQRIFGEKVIGLSQGSVSDMLSRPKPWSKLTQKGREPFIRMQLWLNG | -0.278 ± 0.078 |
| QEVDTIELTRQVKEKLAKNGICQRIFGEKVYGLSQGSVSDMLSRPKPWSKLTQKGREPFIRMQLWLNG | -0.351 ± 0.1 |
| QEVDTIELTRQVKEKLAKNGICQRIFGEKVGGLSQGSVSDMLSRPKPWSKLTQKGREPFIRMQLWLNG | -0.256 ± 0.057 |
| QEVDTIELTRQVKEKLAKNGICQRIFGEKVHGLSQGSVSDMLSRPKPWSKLTQKGREPFIRMQLWLNG | -0.313 ± 0.1 |
| QEVDTIELTRQVKEKLAKNGICQRIFGEKVWGLSQGSVSDMLSRPKPWSKLTQKGREPFIRMQLWLNG | -0.138 ± 0.063 |
| QEVDTIELTRQVKEKLAKNGICQRIFGEKVNGLSQGSVSDMLSRPKPWSKLTQKGREPFIRMQLWLNG | -0.319 ± 0.098 |
| QEVDTIELTRQVKEKLAKNGICQRIFGEKVPGLSQGSVSDMLSRPKPWSKLTQKGREPFIRMQLWLNG | -0.233 ± 0.073 |
| QEVDTIELTRQVKEKLAKNGICQRIFGEKVEGLSQGSVSDMLSRPKPWSKLTQKGREPFIRMQLWLNG | -0.486 ± 0.067 |
| QEVDTIELTRQVKEKLAKNGICQRIFGEKVTGLSQGSVSDMLSRPKPWSKLTQKGREPFIRMQLWLNG | -0.393 ± 0.063 |
| QEVDTIELTRQVKEKLAKNGICQRIFGEKVVGLSQGSVSDMLSRPKPWSKLTQKGREPFIRMQLWLNG | -0.242 ± 0.049 |
| QEVDTIELTRQVKEKLAKNGICQRIFGEKVKGLSQGSVSDMLSRPKPWSKLTQKGREPFIRMQLWLNG | -0.233 ± 0.065 |
| QEVDTIELTRQVKEKLAKNGICQRIFGEKVRGLSQGSVSDMLSRPKPWSKLTQKGREPFIRMQLWLNG | -0.15 ± 0.052 |
| QEVDTIELTRQVKEKLAKNGICQRIFGEKVMGLSQGSVSDMLSRPKPWSKLTQKGREPFIRMQLWLNG | -0.191 ± 0.068 |
| QEVDTIELTRQVKEKLAKNGICQRIFGEKVFGLSQGSVSDMLSRPKPWSKLTQKGREPFIRMQLWLNG | -0.11 ± 0.091 |
| QEVDTIELTRQVKEKLAKNGICQRIFGGKVLGLSQGSVSDMLSRPKPWSKLTQKGREPFIRMQLWLNG | -0.072 ± 0.059 |
| QEVDTIELTRQVKEKLAKNGICQRIFGFKVLGLSQGSVSDMLSRPKPWSKLTQKGREPFIRMQLWLNG | -0.195 ± 0.091 |
| QEVDTIELTRQVKEKLAKNGICQRIFGHKVLGLSQGSVSDMLSRPKPWSKLTQKGREPFIRMQLWLNG | -0.197 ± 0.15 |
| QEVDTIELTRQVKEKLAKNGICQRIFGAKVLGLSQGSVSDMLSRPKPWSKLTQKGREPFIRMQLWLNG | -0.036 ± 0.057 |
| QEVDTIELTRQVKEKLAKNGICQRIFGKKVLGLSQGSVSDMLSRPKPWSKLTQKGREPFIRMQLWLNG | -0.106 ± 0.076 |
| QEVDTIELTRQVKEKLAKNGICQRIFGTKVLGLSQGSVSDMLSRPKPWSKLTQKGREPFIRMQLWLNG | -0.041 ± 0.067 |
| QEVDTIELTRQVKEKLAKNGICQRIFGWKVLGLSQGSVSDMLSRPKPWSKLTQKGREPFIRMQLWLNG | -0.104 ± 0.063 |
| QEVDTIELTRQVKEKLAKNGICQRIFGPKVLGLSQGSVSDMLSRPKPWSKLTQKGREPFIRMQLWLNG | -0.145 ± 0.069 |
| QEVDTIELTRQVKEKLAKNGICQRIFGDKVLGLSQGSVSDMLSRPKPWSKLTQKGREPFIRMQLWLNG | -0.307 ± 0.11 |
| QEVDTIELTRQVKEKLAKNGICQRIFGVKVLGLSQGSVSDMLSRPKPWSKLTQKGREPFIRMQLWLNG | -0.214 ± 0.056 |

| Variant | abundance fitness |
| --- | --- |
| QEVDTIELTRQVKEKLAKNGICQRIFGIKVLGLSQGSVSDMLSRPKPWSKLTQKGREPFIRMQLWLNG | -0.277 ± 0.094 |
| QEVDTIELTRQVKEKLAKNGICQRIFGCKVLGLSQGSVSDMLSRPKPWSKLTQKGREPFIRMQLWLNG | -0.286 ± 0.11 |
| QEVDTIELTRQVKEKLAKNGICQRIFGRKVLGLSQGSVSDMLSRPKPWSKLTQKGREPFIRMQLWLNG | -0.026 ± 0.053 |
| QEVDTIELTRQVKEKLAKNGICQRIFGLKVLGLSQGSVSDMLSRPKPWSKLTQKGREPFIRMQLWLNG | -0.113 ± 0.045 |
| QEVDTIELTRQVKEKLAKNGICQRIFGQKVLGLSQGSVSDMLSRPKPWSKLTQKGREPFIRMQLWLNG | -0.127 ± 0.083 |
| QEVDTIELTRQVKEKLAKNGICQRIFGNKVLGLSQGSVSDMLSRPKPWSKLTQKGREPFIRMQLWLNG | -0.134 ± 0.11 |
| QEVDTIELTRQVKEKLAKNGICQRIFGYKVLGLSQGSVSDMLSRPKPWSKLTQKGREPFIRMQLWLNG | -0.229 ± 0.11 |
| QEVDTIELTRQVKEKLAKNGICQRIFVEKVLGLSQGSVSDMLSRPKPWSKLTQKGREPFIRMQLWLNG | -0.231 ± 0.047 |
| QEVDTIELTRQVKEKLAKNGICQRIFQEKVLGLSQGSVSDMLSRPKPWSKLTQKGREPFIRMQLWLNG | -0.314 ± 0.087 |
| QEVDTIELTRQVKEKLAKNGICQRIFHEKVLGLSQGSVSDMLSRPKPWSKLTQKGREPFIRMQLWLNG | -0.184 ± 0.14 |
| QEVDTIELTRQVKEKLAKNGICQRIFTEKVLGLSQGSVSDMLSRPKPWSKLTQKGREPFIRMQLWLNG | -0.201 ± 0.067 |
| QEVDTIELTRQVKEKLAKNGICQRIFWEKVLGLSQGSVSDMLSRPKPWSKLTQKGREPFIRMQLWLNG | -0.569 ± 0.099 |
| QEVDTIELTRQVKEKLAKNGICQRIFKEKVLGLSQGSVSDMLSRPKPWSKLTQKGREPFIRMQLWLNG | -0.137 ± 0.088 |
| QEVDTIELTRQVKEKLAKNGICQRIFMEKVLGLSQGSVSDMLSRPKPWSKLTQKGREPFIRMQLWLNG | -0.208 ± 0.071 |
| QEVDTIELTRQVKEKLAKNGICQRIFEEKVLGLSQGSVSDMLSRPKPWSKLTQKGREPFIRMQLWLNG | -0.131 ± 0.068 |
| QEVDTIELTRQVKEKLAKNGICQRIFSEKVLGLSQGSVSDMLSRPKPWSKLTQKGREPFIRMQLWLNG | -0.008 ± 0.053 |
| QEVDTIELTRQVKEKLAKNGICQRIFIEKVLGLSQGSVSDMLSRPKPWSKLTQKGREPFIRMQLWLNG | -0.067 ± 0.11 |
| QEVDTIELTRQVKEKLAKNGICQRIFFEKVLGLSQGSVSDMLSRPKPWSKLTQKGREPFIRMQLWLNG | -0.086 ± 0.1 |
| QEVDTIELTRQVKEKLAKNGICQRIFLEKVLGLSQGSVSDMLSRPKPWSKLTQKGREPFIRMQLWLNG | -0.12 ± 0.056 |
| QEVDTIELTRQVKEKLAKNGICQRIFREKVLGLSQGSVSDMLSRPKPWSKLTQKGREPFIRMQLWLNG | -0.177 ± 0.054 |
| QEVDTIELTRQVKEKLAKNGICQRIFYEKVLGLSQGSVSDMLSRPKPWSKLTQKGREPFIRMQLWLNG | -0.144 ± 0.11 |
| QEVDTIELTRQVKEKLAKNGICQRIFGEKALGLSQGSVSDMLSRPKPWSKLTQKGREPFIRMQLWLNG | -0.253 ± 0.26 |
| QEVDTIELTRQVKEKLAKNGICQRIFGEKLLGLSQGSVSDMLSRPKPWSKLTQKGREPFIRMQLWLNG | -0.416 ± 0.49 |
| QEVDTIELTRQVKEKLAKNGICQRIFGEKYLGLSQGSVSDMLSRPKPWSKLTQKGREPFIRMQLWLNG | -0.038 ± 0.25 |
| QEVDTIELTRQVKEKLAKNGICQRIFGEKFLGLSQGSVSDMLSRPKPWSKLTQKGREPFIRMQLWLNG | -0.657 ± 0.29 |
| QEVDTIELTRQVKEKLAKNGICQRIFGEKGLGLSQGSVSDMLSRPKPWSKLTQKGREPFIRMQLWLNG | 0.111 ± 0.43 |
| QEVDTIELTRQVKEKLAKNGICQRIFGEKPLGLSQGSVSDMLSRPKPWSKLTQKGREPFIRMQLWLNG | 0.123 ± 0.4 |

| Variant | abundance fitness |
| --- | --- |
| QEVDTIELTRQVKEKLAKNGICQRIFGEKVLALSQGSVSDMLSRPKPWSKLTQKGREPFIRMQLWLNG | -0.096 ± 0.067 |
| QEVDTIELTRQVKEKLAKNGICQRIFGEKVLCLSQGSVSDMLSRPKPWSKLTQKGREPFIRMQLWLNG | -0.266 ± 0.076 |
| QEVDTIELTRQVKEKLAKNGICQRIFGEKVLHLSQGSVSDMLSRPKPWSKLTQKGREPFIRMQLWLNG | -0.096 ± 0.096 |
| QEVDTIELTRQVKEKLAKNGICQRIFGEKVLELSQGSVSDMLSRPKPWSKLTQKGREPFIRMQLWLNG | -0.411 ± 0.11 |
| QEVDTIELTRQVKEKLAKNGICQRIFGEKVLFLSQGSVSDMLSRPKPWSKLTQKGREPFIRMQLWLNG | -0.313 ± 0.079 |
| QEVDTIELTRQVKEKLAKNGICQRIFGEKVLDLSQGSVSDMLSRPKPWSKLTQKGREPFIRMQLWLNG | -0.311 ± 0.076 |
| QEVDTIELTRQVKEKLAKNGICQRIFGEKVLILSQGSVSDMLSRPKPWSKLTQKGREPFIRMQLWLNG | -0.584 ± 0.096 |
| QEVDTIELTRQVKEKLAKNGICQRIFGETVLGLSQGSVSDMLSRPKPWSKLTQKGREPFIRMQLWLNG | 0.027 ± 0.068 |
| QEVDTIELTRQVKEKLAKNGICQRIFGEDVLGLSQGSVSDMLSRPKPWSKLTQKGREPFIRMQLWLNG | -0.202 ± 0.096 |
| QEVDTIELTRQVKEKLAKNGICQRIFGEMVLGLSQGSVSDMLSRPKPWSKLTQKGREPFIRMQLWLNG | -0.254 ± 0.078 |
| QEVDTIELTRQVKEKLAKNGICQRIFGERVLGLSQGSVSDMLSRPKPWSKLTQKGREPFIRMQLWLNG | -0.05 ± 0.049 |
| QEVDTIELTRQVKEKLAKNGICQRIFGEPVLGLSQGSVSDMLSRPKPWSKLTQKGREPFIRMQLWLNG | -0.431 ± 0.071 |
| QEVDTIELTRQVKEKLAKNGICQRIFGESVLGLSQGSVSDMLSRPKPWSKLTQKGREPFIRMQLWLNG | -0.12 ± 0.051 |
| QEVDTIELTRQVKEKLAKNGICQRIFGEVVLGLSQGSVSDMLSRPKPWSKLTQKGREPFIRMQLWLNG | -0.195 ± 0.061 |
| QEVDTIELTRQVKEKLAKNGICQRIFGEEVLGLSQGSVSDMLSRPKPWSKLTQKGREPFIRMQLWLNG | 0.039 ± 0.064 |
| QEVDTIELTRQVKEKLAKNGICQRIFGENVLGLSQGSVSDMLSRPKPWSKLTQKGREPFIRMQLWLNG | 0.365 ± 0.15 |
| QEVDTIELTRQVKEKLAKNGICQRIFGEHVLGLSQGSVSDMLSRPKPWSKLTQKGREPFIRMQLWLNG | -0.121 ± 0.08 |
| QEVDTIELTRQVKEKLAKNGICQRIFGEFVLGLSQGSVSDMLSRPKPWSKLTQKGREPFIRMQLWLNG | -0.524 ± 0.11 |
| QEVDTIELTRQVKEKLAKNGICQRIFGELVLGLSQGSVSDMLSRPKPWSKLTQKGREPFIRMQLWLNG | -0.516 ± 0.051 |
| QEVDTIELTRQVKEKLAKNGICQRIFGEGVLGLSQGSVSDMLSRPKPWSKLTQKGREPFIRMQLWLNG | -0.17 ± 0.063 |
| QEVDTIELTRQVKEKLAKNGICQRIFGEWVLGLSQGSVSDMLSRPKPWSKLTQKGREPFIRMQLWLNG | -0.273 ± 0.072 |
| QEVDTIELTRQVKEKLAKNGICQRIFGEYVLGLSQGSVSDMLSRPKPWSKLTQKGREPFIRMQLWLNG | -0.492 ± 0.095 |
| QEVDTIELTRQVKEKLAKNGICQRIFGECVLGLSQGSVSDMLSRPKPWSKLTQKGREPFIRMQLWLNG | -0.148 ± 0.088 |
| QEVDTIELTRQVKEKLAKNGICQRIFGEAVLGLSQGSVSDMLSRPKPWSKLTQKGREPFIRMQLWLNG | -0.258 ± 0.069 |
| QEVDTIELTRQVKEKLAKNGICQRIFGEIVLGLSQGSVSDMLSRPKPWSKLTQKGREPFIRMQLWLNG | -0.57 ± 0.22 |
